Drawing on a protein production outcome set (Wang et al. 2014), this text covers protein production for 18 sequences.

This data set in a line: label from the status in PepcDB records.
With “RGIAVYVEHHNGNIHPVTYELIGKAREMASKIKQPVYCVFVGKDIKDKCSNLISYGVDEVFVYDEDEFKDFRIEPYSKAIENFIDKIKPTIVLVGGTTLGRSLAPRLAARFRTGLTADCTILDIQSNTDLDQIRPAFGGNIMAHINTPNNRPQFATVRYKIFSAPEKIENTTGKITLCKVEKKELKSKIKVLSVKEKNKEVG”, the protein production entry is recorded as “failed”.

For “MIPDELKHYLTDDWYAVVREHKLLELPAKVTVQQISEQYLAHKKSVKSTSASKEVAINDVLDGIVEYFNVMLGSQLLYKFERTQYADVMQKHPDTPLSELYGSFHLLRLFVRLGSMLSYSALDQQSMQNLLTHVQDFLKFLVKNSSIFFSMSNFINVDPEYVRNAQ”, the protein production result was “failed”.

Regarding “MIDLDFRKLTIEECLKLSEEEREKLPQLSLETIKRLDPHVKAFISVRENVSVEKKGKFWGIPVAIKDNILTLGMRTTCASRILENYESVFDATVVKKMKEAGFVVVGKANLDEFAMGSSTERSAFFPTRNPWDLERVPGGSSGGSAAAVSAGMVVAALGSDTGGSVRQPASLCGVVGYKPTYGLVSRYGLVAFASSLDQIGPITKTVRDAAILMEIISGRDENDATTVNRKVDFLSEIEEGVSGMKFAVPEEIYEHDIEEGVSERFEEALKLLERLGAKVERVKIPHIKYSVATYYVIAPAEASSNLARFDGVKYGLRIKEKGLREMYMKTRNVGFGEEVRRRIMIGTFTLSAAYYEAYFNKAMKVRRKISDELNEVLSQYDAILTPTSPVTAFKIGEIKDPLTYYLMDIFTIPANLAGLPAISVPFGFSNNLPVGVQVIGRRFADGKVFRIARAIEKNSPYNENGMFPLPEVKA”, the protein production result was “not failed”.

For “MAAVRKIHVTVKFPSKQFTVEVDRTETVSSLKDKIHIVENTPIKRMQLYYSGIELADDYRNLNEYGITEFSEIVVFLKSINRAKD”, the protein production entry is “not failed”.

For “MGIRVKRRQHQHLLESLVHSTAKQQGDFTKTAELATELLCQNLAVSLVSIWIFSADQGTQSLVAQFGSMALQDTYRPSLLHTVPRYLNELKNYRHIDAGNTLIDPRLTELVDSYFIPRQILSSLDVGIRINGHLEGVLCIERAQVTHHWHDSEIHLACQMADQLALTLATKHAYDKEERLSLFRCAIEQSRQMSMLEHHHHHH”, the protein production result was “not failed”.

“MPKIWTERIFDDPEIYVLRIDDDRIRYFEAVWEIPEGISYNAYLVKLNGANVLIDGWKGNYAKEFIDALSKIVDPKEITHIIVNHTEPDHSGSLPATLKTIGHDVEIIASNFGKRLLEGFYGIKDVTVVKDGEEREIGGKKFKFVMTPWLHWPDTMVTYLDGILFSCDVGGGYLLPEILDDSNESVVERYLPHVTKYIVTVIGHYKNYILEGAEKLSSLKIKALLPGHGLIWKKDPQRLLNHYVSVAKGDPKKGKVTVIYDSMYGFVENVMKKAIDSLKEKGFTPVVYKFSDEERPAISEILKDIPDSEALIFGVSTYEAEIHPLMRFTLLEIIDKANYEKPVLVFGVHGWAPSAERTAGELLKETKFRILSFTEIKGSNMDERKIEEAISLLKKELE”: the protein production result is “not failed”.

With “MSNFEKRNRKMAEKNIRKPKQERSIEKRNKILQVAKDLFSDKTYFNVTTNEIAKKADVSVGTLYAYFASKEDILTALLKRYNDFFLTTIFADINSQDSLDRFKKNPKEWLNVLINQLLAAEDKIFHAQIEMLAYAIPQAKALLEEHNNNLKNLTYKCLLYYSDQAANPSFKTLSLVVFDFISALVDELLYHEHTQEEAHQIKKTGIDSLDLIIKSYL”, the protein production entry is recorded as “not failed”.

With “MEYQHWLREAISQLQASESPRRDAEILLEHVTGRGRTFILAFGETQLTDEQCQQLDALLTRRRDGEPIAHLTGVREFWSLPLFVSPATLIPRPDTECLVEQALARLPEQPCRILDLGTGTGAIALALARERPDCEITAVDRMPDAVALAQRNAQHLAIKNIHILQSDWFSALAGQQFAMIVSNPPYIDEQDPHLQQGDVRFEPLTALVAADSGMADIVHIIEQSRNALVSGGFLLLEHGWQQGEAVRQAFILAGYHDVETCRDYGDNERVTLGRYYQ”, the protein production entry is reported as “failed”.

Turning to “MYDSRGVALHSELIHRWNHAFSILSIVAFPKKRLLFAGSQDSKILVFDLPTYNLIHTIRLGESQEETHTRSSVLCLTGSEDENFLFSGGADSLVRIWSIGEKTIRDDFLPVTEIATVYSVTDIGDIFSLAYLDSLETIVFGCQNASLLYVENLIQKIEKKSSDGVENINKLPHRRYDKFFDSLGPTGYSSNSLSQTSLTSLQENCGAAIIEVPSENIIKYAHYGFIYSINKLCPRFNQLLEKSSRTSGAEHIISSAGDGISKLWEFSKDKGQNTVKISLINDKIDNEDSVISQTIEFPFLYCGLTDGIIKIWDLNTQQIISTLKTKHESDVISISVYMDHVFAIDESGITHFYQNQVNHWNPQQGKILSSEIFSKSNAGSVSLLTGGSDGSLTLWDITSLLSAVPLSSNSPINASSTLQTTNLWAAYQSASLNNEEMLNTLRELISFQTVSQSKDTTNTLSLRRCAIYLQQLFLKFGATNSQLFPLPDGGNPVVFAYFQGNGKVSQVKGAKKKRILWYGHYDVISSGNTFNWNTDPFTLTCENGYLKGRGVSDNKGPLVSAIHSVAYLFQQGELVNDVVFLVEGSEEIGSASLKQVCEKYHDIIGKDIDWILLSNSTWVDQEHPCLNYGLRGVINAQIKVWSDKPDGHSGLNGGVYDEPMVNLVKIVSKLQNEQNEIMIPNFYSPLKDLTEEEYQRFQKITELANIDENTTVQDLITNWTKPSLSMTTVKFSGPGNITVIPKSVTMGISIRLVPEQSVEQVKRDLKAYLEESFKQLKSQNHLEIKVLNEAEGWLGDPTNHAYQILKDEITTAWDVEPLLVREGGSISCLRMLERIFDAPAVQIPCGQSTDNGHLANENLRIKNWSNLTEILSKVFNRL”, the protein production entry is listed as “failed”.

As to “EQYEIGVKPPKPANITATYTGGVLTVRVTENGKTLTLTSNVTMPTGTGPFPVVIGMNARTGQLPTNLFNGVIQIPFNHDQVAKYTQGDRDPSYPFFQLYPNLTSNGYYSAWAWGISRLIDGIELVQAQLNADTKRIAVTGCSYAGKMALFAGAFDERIALTIAQESGGGGVNAWRVSETIGNVEKISNTNYAWFMQSLKTNFQNGNAVKLPYDHHELMAMIAPRALLVLGNPPFEWLGDESGYVSSRAAQEVWTTLGVPERFGFSFRGGHDHCSLPSASNAEVTAFVDKFLR”, the protein production result was “failed”.

“EGYEQDFAVLTAEITSKIARVPRLPPDEKKQMVANVEKQLEEARELLEQMDLEVREIPPQSRGMYSNRMRSYKQEMGKLETDFKRSRIA”: the protein production result is “not failed”.

For “MASTYYELLGVSKYASEADIKKAFKDLAKKYHPDKHPGEAFYEEHFKKINEAYQILSDKQARQNYDFRLQYGQHAQQSRPAQNQQRAYQRPTATYQQPKYRRPKPAASGTSAYQKKLNTYYISIAIGAVVFIFACYWFYSFMNTYSSKKYFNEGLKAESRGNDMQALSFYFSALEINLKNPEVNEKIGDLYSKFATNSSYDLFYYDLELQKNFQDPDFDATSIELLKKTRNVDSLAALYYKRSFENFEMPVDKRRVGLKSIKACLKTGDYKQAADNLYKVSFLPDYKRDDSVLYYRGDVIFQTRFYDQARDNYRKFLALHPTSAEASVKIAVCHYNEHNEDYALAQLAKTIKRFPANGEAYYFLGQIHLRNNDTLKACSNFYKADSLHVLAAKPSLYKYCRN”, the protein production entry is on record as “failed”.

As to “MRYRRAARPVATVLIHAMQTYPLVFHASPDQTIAWRDGAPVAVRTFLAEVAQLAAALPAGAHVFNACTDRYRFTVGLCATLVAGKISLLPASQTPETVRRLAAFAPDVFCLHDAPDCAIALPRFRFPEPLPPAGADAPVDVPQIDASRVMAYIFTSGSTGTPVPHRKTWGALVEGVRASAARLGLLDAHACTLVGTVPPQHMYGFESTVLLALVGGLAFSNRLPFYPADIRAALEAVPQPRVLVTSPIHLRALLSSERALPPAALVLSATAALPEPLASEAEARLAAPLIEIYGSTETGQIATRRTAQGATWHLQPGIRLEARAGTPDEDGPVTWASGAHLDAPVPMGDTLELIDDTHFLLHGRKADLINVAGKRTSLAYLNHQLNAIPGVEDGVFFMPSAADNGSEPPARLAALVVAPELAAADLLHALRERIDPAFLPRPLLLVEALPRDATGKLPRDALAALIAQHGHRGARAGAPAPITFTIPADHPALPGHFPGHPIVPGVVLLDQAIRRIGAALNRPFDACRLSSAKFLSPAAPGVPLALAFEATASGAIRFTVSAGEREVASGVLAQQEAARP”, the protein production entry is recorded as “failed”.

Regarding “MLRMKKFLVVFFLVQSIFVFAQQSKKVESALKTFNSGKIDDGIKKMEAATQEDPSEDNWDLLVQMYKYRYEYAEQQQEDALTLLLLQSLGGSKAKIKKYTSPSVCYRDLIEKSKQAELNSRSTTASMVLRAYLVDYYPDTAVADTAKKEFNSAEKYFSEKDYPNAKLHYQNACKLDPSYYKALIYLGDTHWHMKKMDSAIYYFKQGIQMHGDLLEPRKYLVDALRDSKQYDEAIQESINAITVYPDESMFEKVESLYAKTGRTFDRHWIKRGCNVNTYAGTQLVTTNETWKAYQQARGEIKTYCDTNGVIVKSNSLTKAHYMEVYSWEKMLASNLVVPQELAFAKKMADEGYLDCYVFISLYHYDEYDQFIDFAKNNKERIRTYITKYLIQ”, the protein production entry was “failed”.

Turning to “MTDARTTVVVITHNRCAEVLRTLDRLAELPERPAVIVTDNGSTDGTAAAVARHHPGVRLLRSGRNLGAVGRNLAVRQVTTPYVAFCDDDSWWAPGSLSGAADLLDRYPAVGSVTARILVEPEGTEDPIVEELRDSPVPRPDWLPGPALGSFLAAATVLRTDAFRAAGGFHPRLWLGGEEELLAADLAANGWWLTYAGQLTIHHHPSGVRDSTVRRSHGIRNTLWFTWLRRPVGPALRRTLHLARTVPRDTASLRAFAEATAALPWVLRERRVLPPEVEARLRALEPAQRDSTARSYTGLEHHHHHH”, the protein production result is “failed”.

As for “MTETNHDQAEYWGKSASGMKWLTFEEQIAASFAPVVDLLLERAALKPGQRVLDIGCGLGDVTLAAAQAVGPGGHVLGVDISAPFLERAGLRASGMGNVGFALADAQSEPFAPAERDAVLSRFGMMFFSDTVAAFANIARALKPGGRMTFAAWGPLAGNPWFYLPHRAATDRLGQMPKVDRNAPGPLAFHDIDRVTGLMAEAGLADIEAQAVDLNLTPPGGLEGAAALCTRLGPAARVLAHFNGSEADEAAIRDAVSAALEPYVEGGEVLMPATINLFQARRAGTA”, the protein production entry was “failed”.

Turning to “MSLRRRFCAFLKGMQSPMIFDVKAPILGFETIHKMRLQKIDEIFLRLNSTEENSVVSFTLVNPFALRKYEFEVPTPLKILLELEGAKSVLVANIMVVQTPIELSTVNYLAPLIFNLDKQLMGQVVLDSNKYPHYHLRENILSHTHE”, the protein production entry was “failed”.

For “GYDHKGMGITARGAWESVKRHFRALGRDCQNEDFRCIGVGDMSGDVFGNGMLLSRHSLLVAAFDHRHIFLDPMPDAALSFAERERLFKLPRSSWADYDATLISKGGGIYPRTLKSIQISPQVAEVLGLDKGIKQLSPNVLISAILKAPVDLFWNGGIGTYVKASSETHADVGDRANNALRVNGLELRCKVVGEGGNLGLTQLGRIEAAQRGVLLNTDFIDNSAGVDTSDHEVNIKILLNDVVQAKTLCFDARNALLASMTDDVAQLVLWDNIRQNQALSLMERMSVKRLGSKQHFIRTLERQGLLDRQIEFLPSDAELSARKARGLGL”, the protein production entry is “failed”.
